Paper PMC6713497, “Dimeric structures of quinol-dependent nitric oxide reductases (qNORs) revealed by cryo–electron microscopy” (Science Advances, 2019)

Target: the molecule itself
Test: cryo-EM structure; single-particle cryo-EM of detergent-solubilised qNOR-BRIL (50 mM tris, 150 mM NaCl, 0.05% DTM; wild type pH 7.0 at 3 mg/ml, Val495Ala pH 7.5 at 5 mg/ml), C2 symmetry imposed

B1: AxqNOR-BRIL (quinol-dependent nitric oxide reductase from Alcaligenes xylosoxidans fused with apocytochrome b562) (enzyme)
chain: not shown
In the case of B1, the “stoichiometry N” value is reported as 2.
